In the DeepSol protein solubility set:

assay: soluble on expression in E. coli; label from the status in PepcDB or PDB records

Sequence | soluble on expression in E. coli
MAHHHHHHMEYMHHIQGVVVLNDSGNRVFVKYYLNEDMKARGVLTTLEKQRALERVIYDAVSAPKRNWAASKDGDIVLHDVHSILFHVWGSITFAIVGDIKENEMVMHTVLRCIVDALQRILKTQDITHKGILEKYDALVLAVDEVIDDGIVLETSAQNVADDVAPFMADAETDTARSALSKVNEYLKENL | soluble
MAHHHHHHMFHLWPLRPQPNRKPLGSKVVCWPQRRQIPPAPRQVWISQTRRRGPPCSVKEGEPSWRQGTRPDWPELKRSQRQSTAGRATDLSVDKAIPFGALLPCGEASKQHQQQQPNATGNWHDDADAPKEGLETN | soluble
MAHHHHHHMFRGRIELIIGPMFAGKTTELMRRVKREIHARRSCFVIKYSKDTRYDEHNVASHDQLMLRAQAAVSQLTEVRDTWKRFDVLAIDEGQFFSDLVDFCNTAADAGKVVMVSALDGDYRRKPFGQICELVPYCEAVDKLTAVCMMCHEQPACFTRRTVNVEQQELIGGADMYIATCRECYSKQQLPSIEEMRTQRMAIKEVEKRYLGLSDKRATASPQTPEKPAGGWCTKAGVATLPTMVKEGAASSGASAGMKSGRGLCEMQAFTTETPKYQRVEPACTASAASSE | soluble
MAHHHHHHMGGCVVSVMAKRNAAQVMPDPRAEALERRRAQCGGNFVQRVPGTESEHASAIYRIAGVTAEQHEAILAAAAARPTFYTTLMRHCAERTDQRVLGYRPVKCVTKEPAPSKSSGSTSEPAKKERLMSITHFDEVVHVTYSEMEERIFHFGAGLAALGVTANGNVSIYLDTCVEWLIGIYGIWSCSAVAATVYANLGEAALAHALHETESQAILCGSVNVANVLKLMKNGVMPQVPIIHVGALPASLDTHGVQVVSFKQVEMIGAAHLEGGAAKGTGPLNDDDLALIMYTSGTTGDPKGVMHTHRTLAAGLHTLEPRVIDLLGQPRPDDVYLSYLPMAHIMEFTITNLFIFRGAFIGFGTPRTLTDTTARPHGDLLTFNPSMLAGVPRIFDTLKKAVEAKLPPVGTLKRQVFDHAYQSRLAAMKEGKDTPFWNEKVFAAPRAVLGSRLRIMLSGGGPLSAATHEFVNVVFGRVVIGYGLTETICVGAIQIPGDTETNVTGLMEPGQEIKLLDIDEYKHTDTPEPRGEMLSRGPYLFKGYYKQPELTREVLDEDGWFHTGDVGSFTADGKMRIVGRVKALAKNCLGEYIALEALEAVYSSNELLQPNGVCVLVHPDKPYITALALTDEARATSFAAKHGIEGTYPALLKDQRFQQAAAISMADTARASNRASFECVKRVRVIDDEWTPENEILTAAQKLKRRVIDAQYAQTIAELFADD | not soluble
MAHHHHHHMGGPPTIEELKREKIIPHVFPDENVDLTVDMYISFKSGKEVNHGNILDLAGTGSVPRNIKFSEEPPEDYCYILFMIDPDFPSRRRPDGRDYVHWAVSGIKSKELVKGTDKNCITLLPYVGPSIKKGTGLHRISFILSLVKEENKGNVTGVPLYRGEHYITRVKFNNCQSAYNVIQMNDMKIVGFNWCQMRRK | soluble
MAHHHHHHMGISVSHLLERLRTLFEPLEVVCALQLKCLLETRQLDYCNVSLNELQRAEAGLRSLLVDHPLDIEVGAQWEHLEDELQRLHVRFSVPVPTFRLLVRRSARALRSAVRALGWDGKIQRRLWQEEGEEPRDDGVQEPLRAFDAGGLSTCTVDEICNEGGVQDRSAAVFSAVAKLYHHRLALGAQSLVAAERLGPALGANVRAASRVPSLTLPNSAADPTHPRFKADLYAVSPDALSCTAARREAYAAS | not soluble
MAHHHHHHMGKVKKQANHAIKKILMKEKSLAMKKKREAESYHETPESNTTTQATKDYAAVLFRKALVTQAAPTRTAHFLSYNTALGPPYRIWLDTNFINFSMQNKIDIVQGLMDCLLAKVIPCICDCVFAELEKLGKKFRIALKLARDKRFERLTCDSKYADDCVVRTVTQHPIYIVATCDQELKRRLRKVPGVPIMYIAKHRYTIERLPEAYGAPE | not soluble
MAHHHHHHMGLTDLFRRETPQERIRMYKRQLDRTCRDLDRERNKLSTQERKIMMEMKKMAKQDQVDAVRIMARDLVRTRKYNQKMYRMRTQIQGVSLRMQTMQSSAQMADAMKGVTKAMRSMNKKMNIPEIQKIMREFEKQNEMMGMKEDMMNDAVDEVMDDDGMEEEETEQEIQKVMDEAGLEFRTKVGVTDTALPQKSTETQGETDEELDARLAALKASMK | soluble
MAHHHHHHMGNTTDPGAAPLHSSGFFKISARFPKAAVAASGAGPSLKRRRAEAFVVGDDGVPTLRTTAIAPGEQVGGDGTAEPFEFFKAQQDAFMNDIEGIKDAQLQRFNRKARRIMKSRRAWASSSSSGRHANSQQHSSSSGTHVTGSGALSKTGAKKTKPKRY | soluble
MAHHHHHHMGRASKDKRDIYYRKAKEEGYRARSAYKLLQLHEEFGILRREEIRTGVVDLCAAPGSWSQVLSNHLCGSQPGSAAEACEGDEAINSEASQRPRIVAVDLQEMMPIDGVQLLQGDITSEWTAREIIRLLNGDSSSVPECSDATALSTAGAINDFNNGRGNNVSEEGKSSQQRSDCGVGLMNERNNASECVDGDNNNNNSNNNDDRNGGDAGASTRPVAGRKADLVVCDGAPDVTGMHELDEYLQHHLLLAALNITTFVLRRGGTFVTKMFRGPNTPFLVAKAEVFFRQVTIAKPKSSRNASMEAFMVCQNYDPPASYQPSFERPLTQTTSCFTPAAPALHLAAVDAQRMSSDNVNNGELHHSGVTDIVDEAYAVESVIVPFLACGDLTGYDADMCYDRGESDVVLPPVQPPLQAPYIAISEAVKERTKRQRVG | not soluble
MAHHHHHHMGSTGRKAVDEINHWIAYIDCALSHPHPLPKGKHVFRSDLSTVPEVRDIYDCLYKLYAEESASASFREPVNALELGVFNYYEVVTEPMSLRTVLDRIAEGGHYSQASQVLADVEKIWSNCEKYNGADSALVKEAKKCQGILTRLRERLAEEQPAPNAELDKIISAFESADESVLGELEAYFRREDPSLIISNGDVDLTALRVKHLKAMKAILERAMNGGGGRG | not soluble
MAHHHHHHMGTLEAQTQGPGSMLEKKTFKSSHTNAFHDFQARVYVADTDFSGVVYHARYLEFFERGRSEFLRDTGFNNTLLASGVEGEKLFFVVRHMEINFSRPAQIDNLLTIKTRISRLQGARFFMEQYILHGESMLVTAKVEIALINEEGKPRRLPKELFSTIVV | soluble
MAHHHHHHMGTLEAQTQGPGSMNDYKLFRCIQCGFEYDEALGWPEDGIAAGTRWDDIPDDWSCPDCGAAKSDFEMVEVARS | soluble
MAHHHHHHMGTLEAQTQGPGSMVTAEAIDQRTFRRVLGQFCTGVTIITTVHEGNPVGFACQSFAALSLDPPLVLFCPTKVSRSWKAIEASGRFCVNILHEKQQHVSARFGSREPDKFAGIDWRPSDLGSPIIDGSLAHIDCTVHDVHDGGDHFVVFGKVHGLSEVPERKPRPLLFYRGEYTGIEPEKNTPAQWRDDLEAFLTATTADTWL | soluble
MAHHHHHHMIGELVLLIGDFHSPMRNLGLPDCFKDLLKTDKIKHVLCTGNVGCRENLELLKNIADSVHITKGDMDDEYDFPEDTSLTIGDFKISLIHGHQIIPWGDTNALLQWQKKYDSDIVISGHTHKNSIVRYEGKYFINPGSATGAFQPWLSQPTPSFILMAVAKSSIVVYVYEEKNGKTNVEMSEL | soluble
MAHHHHHHMKARSSRPVTTITVTSEETIQTHNARDTPRTFEYKTKRNELMRRLEEMRNALEEDNNNNNKGSRVKLCYYDITFNCRDPVDVTVMSGFQRFEGLGDTLSGHMKCEEDDRHKFVGLIKEIIQLDVSHRARNMDKSEIAVVRIAANFKELNSTFTRSAATLL | not soluble
MAHHHHHHMKEARKGPCVPWQQNYARWQHTTPVNHVTVMIALDTMNKDRGAPCLVPGSHRWREGGLLPSVPYDPAKDEAQQLNTIWEITNEEESEMLMDTPPATVDMKRGEALLIHPLTLFATHGNRSLDAVRCCFIHYMGGKTYATQNGPLLPHTTQFQAGAMIQGPFYPVVFDPAMTEELAMLPGESAAQNDITEEV | not soluble
MAHHHHHHMKHIATQHHRGVVADPQPIHRNTRRAVKVQTRPRDQPRDREAVPADRDVRVRWKITLRAEQRVTKCVTGDDDVQRPHSGVRIAQQQQHGAVPPRASIERDVRHVARHRTNQHRQAHAAPAERHVAVAQPRQPAAHSLRNLGVHHVADALTNRRWRWCGRRWRWRWRRGQWRRASRHRRRDARIAVPSSSALALAANDRRRQRCKAVALLRALPARSNRRHVGDAVELQLCRRRQQTSRDRQAPSNEPVTGVNPR | not soluble
